Results reported in patent publication US20150344570A1 (published 2015).

T1: FcγRIIb extracellular domain with C-terminal His tag (human, UniProt P31994 43-217)
T1 construct: extracellular domain; expressed in FreeStyle293 cells; analyte in Biacore; also called FcgRIIb; 2b
T1 sequence (looked up): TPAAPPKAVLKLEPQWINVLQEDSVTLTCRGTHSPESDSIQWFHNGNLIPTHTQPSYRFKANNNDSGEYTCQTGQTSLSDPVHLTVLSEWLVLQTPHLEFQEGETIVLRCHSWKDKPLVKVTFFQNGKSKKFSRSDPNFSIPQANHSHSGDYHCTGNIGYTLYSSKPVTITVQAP

B1: GpH7-A5/GpH7-B3 variant D265_01G/GpL16-k0 (antibody, human IgG1, kappa)
heavy 1: not shown
heavy 2: not shown
light: DIVMTQSPLSLPVTPGEPASISCQASESLVHSNRNTYLHWYLQKPGQSPQLLIYKVSNRFSGVPDRFSGSGSGTDFTLKISRVEAEDVGVYYCSQNTHVPPTFGQGTKVEIERTVAAPSVFIFPPSDEQLKSGTASVVCLLNNFYPREAKVQWKVDNALQSGNSQESVTEQDSKDSTYSLSSTLTLSKADYEKHKVYACEVTHQGLSSPVTKSFNRGEC
notes: He Ab; IgG1, mutation in one H chain
B2: GpH7-A5/GpH7-B3 variant D265_06M/GpL16-k0 (antibody, human IgG1, kappa)
heavy 1: not shown
heavy 2: not shown
light: B1 light
notes: as for B1
B3: GpH7-A5/GpH7-B3 variant Y300_03V/GpL16-k0 (heterodimerized antibody, He Ab) (antibody, human IgG1, kappa)
heavy 1: not shown
heavy 2: not shown
light: B1 light
notes: Anti-glypican-3 IgG1; alteration only in the GpH7-B3 (K439E) chain; other H chain is GpH7-A5 (D356K/H435R)
B4: GpH7-A5/GpH7-B3 variant Y296_12R/GpL16-k0 (heterodimerized antibody, He Ab) (antibody, human IgG1, kappa)
heavy 1: not shown
heavy 2: not shown
light: B1 light
notes: as for B3
B5: GpH7-A5/GpH7-B3 variant D265_10E/GpL16-k0 (antibody, human IgG1, kappa)
heavy 1: not shown
heavy 2: not shown
light: B1 light
notes: as for B1
B6: GpH7-A5/GpH7-B3 variant Y300_20W/GpL16-k0 (heterodimerized antibody, He Ab) (antibody, human IgG1, kappa)
heavy 1: not shown
heavy 2: not shown
light: B1 light
notes: as for B3
B7: GpH7-A5/GpH7-B3 variant Y300_19Q/GpL16-k0 (heterodimerized antibody, He Ab) (antibody, human IgG1, kappa)
heavy 1: not shown
heavy 2: not shown
light: B1 light
notes: as for B3
B8: GpH7-A5/GpH7-B3 variant D265_07I/GpL16-k0 (antibody, human IgG1, kappa)
heavy 1: not shown
heavy 2: not shown
light: B1 light
notes: as for B1
B9: GpH7-A5/GpH7-B3 variant D265_18N/GpL16-k0 (antibody, human IgG1, kappa)
heavy 1: not shown
heavy 2: not shown
light: B1 light
notes: as for B1
B10: GpH7-A5/GpH7-B3 variant Y296_13S/GpL16-k0 (heterodimerized antibody, He Ab) (antibody, human IgG1, kappa)
heavy 1: not shown
heavy 2: not shown
light: B1 light
notes: as for B3
B11: GpH7-A5/GpH7-B3 variant Y296_16H/GpL16-k0 (heterodimerized antibody, He Ab) (antibody, human IgG1, kappa)
heavy 1: not shown
heavy 2: not shown
light: B1 light
notes: as for B3
B12: GpH7-A5/GpH7-B3 variant V266_09D/GpL16-k0 (antibody, human IgG1, kappa)
heavy 1: not shown
heavy 2: not shown
light: B1 light
notes: as for B1
B13: GpH7-A5/GpH7-B3 variant D265_20W/GpL16-k0 (antibody, human IgG1, kappa)
heavy 1: not shown
heavy 2: not shown
light: B1 light
notes: as for B1
B14: GpH7-A5/GpH7-B3 variant D265_08L/GpL16-k0 (antibody, human IgG1, kappa)
heavy 1: not shown
heavy 2: not shown
light: B1 light
notes: as for B1
B15: GpH7-A5/GpH7-B3 variant V266_13S/GpL16-k0 (antibody, human IgG1, kappa)
heavy 1: not shown
heavy 2: not shown
light: B1 light
notes: as for B1
B16: GpH7-A5/GpH7-B3 variant V266_01G/GpL16-k0 (antibody, human IgG1, kappa)
heavy 1: not shown
heavy 2: not shown
light: B1 light
notes: as for B1
B17: GpH7-A5/GpH7-B3 variant Y296_20W/GpL16-k0 (heterodimerized antibody, He Ab) (antibody, human IgG1, kappa)
heavy 1: not shown
heavy 2: not shown
light: B1 light
notes: as for B3
B18: GpH7-A5/GpH7-B3 variant Y300_09D/GpL16-k0 (heterodimerized antibody, He Ab) (antibody, human IgG1, kappa)
heavy 1: not shown
heavy 2: not shown
light: B1 light
notes: as for B3
B19: GpH7-A5/GpH7-B3 variant D265_15Y/GpL16-k0 (antibody, human IgG1, kappa)
heavy 1: not shown
heavy 2: not shown
light: B1 light
notes: as for B1
B20: GpH7-A5/GpH7-B3 variant S239_20W/GpL16-k0 (antibody, human IgG1, kappa)
heavy 1: not shown
heavy 2: not shown
light: B1 light
notes: as for B1
B21: GpH7-A5/GpH7-B3 variant D265_04F/GpL16-k0 (antibody, human IgG1, kappa)
heavy 1: not shown
heavy 2: not shown
light: B1 light
notes: as for B1

Columns and labels:
[1] = target: T1, FcγRIIb extracellular domain with …; experiment: SPR (Biacore), captured antibody, FcγR as analyte; relative binding
[2] = target: T2, FcγRIa extracellular domain with C-terminal His tag (human, UniProt P12314 16-292); experiment: as above
T2 construct: extracellular domain; expressed in FreeStyle293 cells; analyte in Biacore; also called FcgRI; 1a

[3] = target: T2, FcγRIa extracellular domain with …; experiment: SPR (Biacore); He/Con_1a divided by He/Con_2b (FcγRIIb as reference)
FcγRIa = target: T3, FcγRIa (human, UniProt P12314 16-292); experiment: SPR (Biacore), antibody captured on antigen-peptide chip, FcγRIa as analyte; binding activity relative to control GpH7-A5/GpH7-B3/GpL16-k0 (HeCon Ab) x100
T3 construct: extracellular domain; Soluble extracellular domain with C-terminal His tag, expressed in FreeStyle293 cells; analyte in Biacore; also called FcgRI; CD64; not shown: His tag attached to the C terminus
Experimental: Analysis of interaction between objective antibody and the FcγR was carried out using Biacore T100 (GE Healthcare). HBS-EP+ (GE Healthcare) was used as the running buffer, and the measurement temperature was set to 25° C. Chips produced by immobilizing the antigen peptide by the amine coupling method to a Series S Sencor Chip CM5 (GE Healthcare), or alternatively, chips produced by allowing preliminarily biotinylated antigen peptides to interact with and immobilize onto a Series S Sensor Chip SA (certified) (GE Healthcare) were used. Antibodies of interest were captured onto an antigen peptide-immobilized chip, and allowed to interact to each FcγR diluted with running buffer. To regenerate and repeatedly use the chip, the antibodies captured on the chip were washed off by reacting 10 mM glycine-HCl, pH 1.5.

T2 sequence (P12314 16-292): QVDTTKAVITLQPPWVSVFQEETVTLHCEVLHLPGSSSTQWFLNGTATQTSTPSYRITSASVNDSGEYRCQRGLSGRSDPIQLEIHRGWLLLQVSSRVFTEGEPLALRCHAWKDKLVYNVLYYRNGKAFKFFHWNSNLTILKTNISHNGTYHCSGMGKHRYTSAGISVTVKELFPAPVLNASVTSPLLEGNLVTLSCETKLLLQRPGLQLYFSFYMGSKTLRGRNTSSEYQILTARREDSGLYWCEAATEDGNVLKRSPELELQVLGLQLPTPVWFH
T3 sequence (P12314 16-292): as above

Binder | He/Con_2b [1] | He/Con_1a [2] | He_1a/2b (Ia/IIb) [3] | He/Con_1a (FcγRIa)
B1 | 16.1 % of HeCon Ab (GpH7-A5/GpH7-B3/GpL16-k0 = 100) | 79.9 % of HeCon Ab (GpH7-A5/GpH7-B3/GpL16-k0 = 100) | 4.95 ratio | –
B2 | 10 % of HeCon Ab (GpH7-A5/GpH7-B3/GpL16-k0 = 100) | 75.7 % of HeCon Ab (GpH7-A5/GpH7-B3/GpL16-k0 = 100) | 7.57 ratio | –
B3 | – | – | – | 117 % of control (=100)
B4 | – | – | – | 106 % of control (=100)
B5 | 38.2 % of HeCon Ab (GpH7-A5/GpH7-B3/GpL16-k0 = 100) | 101 % of HeCon Ab (GpH7-A5/GpH7-B3/GpL16-k0 = 100) | 2.66 ratio | –
B6 | – | – | – | 112 % of control (=100)
B7 | – | – | – | 112 % of control (=100)
B8 | 1.3 % of HeCon Ab (GpH7-A5/GpH7-B3/GpL16-k0 = 100) | 54.4 % of HeCon Ab (GpH7-A5/GpH7-B3/GpL16-k0 = 100) | 41.2 ratio | –
B9 | 6.1 % of HeCon Ab (GpH7-A5/GpH7-B3/GpL16-k0 = 100) | 27.7 % of HeCon Ab (GpH7-A5/GpH7-B3/GpL16-k0 = 100) | 4.52 ratio | –
B10 | – | – | – | 105 % of control (=100)
B11 | – | – | – | 106 % of control (=100)
B12 | 10.1 % of HeCon Ab (GpH7-A5/GpH7-B3/GpL16-k0 = 100) | 79.3 % of HeCon Ab (GpH7-A5/GpH7-B3/GpL16-k0 = 100) | 7.88 ratio | –
B13 | 1.1 % of HeCon Ab (GpH7-A5/GpH7-B3/GpL16-k0 = 100) | 51.5 % of HeCon Ab (GpH7-A5/GpH7-B3/GpL16-k0 = 100) | 45.6 ratio | –
B14 | 4.6 % of HeCon Ab (GpH7-A5/GpH7-B3/GpL16-k0 = 100) | 56.8 % of HeCon Ab (GpH7-A5/GpH7-B3/GpL16-k0 = 100) | 12.4 ratio | –
B15 | 54.4 % of HeCon Ab (GpH7-A5/GpH7-B3/GpL16-k0 = 100) | 90.6 % of HeCon Ab (GpH7-A5/GpH7-B3/GpL16-k0 = 100) | 1.67 ratio | –
B16 | 51.5 % of HeCon Ab (GpH7-A5/GpH7-B3/GpL16-k0 = 100) | 91.3 % of HeCon Ab (GpH7-A5/GpH7-B3/GpL16-k0 = 100) | 1.77 ratio | –
B17 | – | – | – | 111 % of control (=100)
B18 | – | – | – | 112 % of control (=100)
B19 | 0.6 % of HeCon Ab (GpH7-A5/GpH7-B3/GpL16-k0 = 100) | 44.3 % of HeCon Ab (GpH7-A5/GpH7-B3/GpL16-k0 = 100) | 73.5 ratio | –
B20 | 45.1 % of HeCon Ab (GpH7-A5/GpH7-B3/GpL16-k0 = 100) | 92.7 % of HeCon Ab (GpH7-A5/GpH7-B3/GpL16-k0 = 100) | 2.06 ratio | –
B21 | 3.2 % of HeCon Ab (GpH7-A5/GpH7-B3/GpL16-k0 = 100) | 53 % of HeCon Ab (GpH7-A5/GpH7-B3/GpL16-k0 = 100) | 16.8 ratio | –
